Results: paper PMC7232441 (2020)

T1: CsTx-13 (Cupiennius salei, UniProt P83919)
T1 chain 1: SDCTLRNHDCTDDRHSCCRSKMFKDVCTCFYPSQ
T1 chain 2: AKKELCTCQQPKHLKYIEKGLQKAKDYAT


Molecular target: T1, CsTx-13
Assay: microscale thermophoresis

Binder	Kd
CsTx-1 (protein) SCIPKHEECTNDKHNCCRKGLFKLKCQCSTFDDESGQPTERCACGRPMGHQAIETGLNIFRGLFKGKKKNKKTK	430 nM
CsTx-9 (protein) KDDKNCIPKHHECTNDKKNCCKKGLTKMKCKCFTVADAKGATSERCACDSSLLQKFGFTGLHIIKGLF	370 nM
